Results from US20220195070A1 (Chugai, published 2022).

Experiments:
[1] = biological target: T1, Anti-IL-8 Antibody; test: SPR (Biacore T200), 25 C, pH 7.4; SKA antibody captured by anti-rabbit IgG, Anti-IL-8 Antibody injected 0-800 nM
T1 construct: also called anti-human IL-8 antibody; Fc-Mutated Antibody
Description: To confirm the binding ability of Anti Fc-Mutation Antibodies that show selective binding to SG115v1, KD values of Anti Fc-Mutation Antibodies against Anti-IL-8 Antibody at pH 7.4 were determined at 25 degrees C. using Biacore T200 instrument (GE Healthcare). Sequence of Fc region of Anti-IL-8 Antibody has high similarity to that of Anti-hC5 Antibody.
Anti-rabbit IgG (Abbexa) was immobilized onto FC1 and 2 of a CMS sensor chip using an amine coupling kit (GE Healthcare). For the immobilization of anti-rabbit IgG, HBS-EP+, pH7.4 (GE Healthcare) buffer was used as running buffer. After the immobilization, running buffer was changed to Phosphate pH7.4 buffer (50 mM phosphate buffer containing 150 mM NaCl and 0.05 w/v % P-20, pH 7.4). Each Anti Fc-Mutation Antibody was captured onto FC2 of the sensor chip by anti-rabbit IgG. The amount of Anti Fc-Mutation Antibody to be captured was adjusted so that the number of resonance units (RU) was 100. Anti-IL-8 Antibody was injected at 0, 100, 400, and 800 nM at 10 micro L/min. Sensor surface was regenerated after each cycle with 10 mM Glycine-HCl, pH2.0, which was injected at a flow rate of 30 micro L/min. KD values were obtained using Biacore T200 Evaluation software, version 2.0 (GE Healthcare).

[2] = biological target: T2, SG115v2 (human, UniProt P01857 1-328 = IgG part); test: ELISA, OD405 against dose (ng/mL, log axis 1-100)
T2 construct: Carries the CH3 modifications of SG115 (Leu428, Ala434, Arg438, Glu440, EU); Construct used in the ELISA is not described beyond the constant region; also called modified IgG heavy chain constant region SG115v2

[3] = biological target: T3, G4d (human, UniProt P01861 1-325 = IgG part); test: ELISA, OD405 against dose (ng/mL, log axis 1-100)
T3 construct: Construct used in the ELISA is not described beyond the constant region

[4] = biological target: T4, Glm (human, UniProt P01857 1-328 = IgG part); test: ELISA, OD405 against dose (ng/mL, log axis 1-100)
T4 construct: Construct used in the ELISA is not described beyond the constant region; also called G1m

[5] = biological target: T5, SG115 (human, UniProt P01857 1-328 = IgG part); test: ELISA, OD405 against dose (ng/mL, log axis 1-100)
T5 construct: also called modified IgG heavy chain constant region SG115

[6] = biological target: T6, SG115v1 (human, UniProt P01857 1-328 = IgG part); test: ELISA, OD405 against dose (ng/mL, log axis 1-100)
T6 construct: Carries the CH2 modifications of SG115 (Arg235, Arg236, Lys239, EU); Construct used in the ELISA is not described beyond the constant region; also called modified IgG heavy chain constant region SG115v1
T6 sequence (P01857 other isoform, or with tags, fused parts or gaps limits assumed): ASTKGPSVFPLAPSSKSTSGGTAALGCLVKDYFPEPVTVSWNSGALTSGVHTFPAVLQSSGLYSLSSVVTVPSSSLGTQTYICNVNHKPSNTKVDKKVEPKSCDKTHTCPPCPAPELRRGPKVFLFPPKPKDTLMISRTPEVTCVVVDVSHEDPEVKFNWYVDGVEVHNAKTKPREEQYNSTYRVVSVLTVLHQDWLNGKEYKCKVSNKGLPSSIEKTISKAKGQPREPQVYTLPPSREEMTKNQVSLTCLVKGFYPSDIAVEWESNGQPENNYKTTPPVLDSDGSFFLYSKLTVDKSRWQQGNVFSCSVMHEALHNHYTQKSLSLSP

T1 sequence (constant, as listed by the source limits assumed): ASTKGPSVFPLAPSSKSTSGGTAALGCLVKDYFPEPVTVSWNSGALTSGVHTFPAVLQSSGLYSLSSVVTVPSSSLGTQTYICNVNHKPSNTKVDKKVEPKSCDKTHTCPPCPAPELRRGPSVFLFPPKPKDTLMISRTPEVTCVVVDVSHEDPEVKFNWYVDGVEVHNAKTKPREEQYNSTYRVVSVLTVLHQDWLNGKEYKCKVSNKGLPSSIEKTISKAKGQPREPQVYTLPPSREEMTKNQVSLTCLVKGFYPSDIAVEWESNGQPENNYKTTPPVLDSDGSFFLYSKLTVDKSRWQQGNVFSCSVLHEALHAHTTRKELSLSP
T4 sequence (P01857 1-328 D239E/L241M limits assumed): as the sequence (constant, as listed by the source limits assumed) above, with R118L, R119G, G210A, S213A, S214P, L311M, A317N, T319Y, R321Q, E323S counted along it
T3 sequence (P01861 1-325 S108P limits assumed): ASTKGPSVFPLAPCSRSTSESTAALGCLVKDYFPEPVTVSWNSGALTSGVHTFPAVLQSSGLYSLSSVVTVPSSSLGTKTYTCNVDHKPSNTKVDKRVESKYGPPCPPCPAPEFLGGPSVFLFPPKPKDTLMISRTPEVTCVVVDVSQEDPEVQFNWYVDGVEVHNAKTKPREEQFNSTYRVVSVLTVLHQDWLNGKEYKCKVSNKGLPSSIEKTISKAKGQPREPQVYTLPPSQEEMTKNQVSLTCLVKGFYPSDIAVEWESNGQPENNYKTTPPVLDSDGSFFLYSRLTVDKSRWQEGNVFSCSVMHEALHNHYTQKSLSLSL
T2 sequence (P01857 other isoform, or with tags, fused parts or gaps limits assumed): as the sequence (constant, as listed by the source limits assumed) above, with R118L, R119G, T319Y counted along it
T5 sequence (P01857 other isoform, or with tags, fused parts or gaps limits assumed): as the sequence (constant, as listed by the source limits assumed) above, with S122K, T319Y counted along it

Binder	Kd [1]	koff [1]	kon [1]	binding result [2]	binding result [3]	binding result [4]	binding result [5]	binding result [6]
SKA0054 (antibody, V domains shown, Recombinant rabbit monoclonal from B-cell cloning, expressed in FreeStyle 293-F cells; the first screen used B-cell culture supernatant; also called Anti-SG115 Antibody; rabbit Anti Fc-Mutation Antibody) VH: QSLEESGGGLVQPEGSLTLTCTASGFSFSSSFWICWVRQAPGKGLEWLACIDAGSSDNTYYANWAKGRFTISKTSSTTVTLQMTSLTDADTATYFCARDRDAAGDAGYGYATSFNLWGPGTLVTVSS VL: AIDMTQTPSSVSAAVGGTVTINCQASESIYSNLAWYQQKPGQRPKLLIYLASTLASGVPSRFKGSGSGTEFTLTISDLECADAATYYCQSVYYDSRGDTFFWAFGGGTEVVVKG	96.8 nM	0.000966 s⁻¹	9980 M⁻¹ s⁻¹	no binding (tested: about 60 ng/mL)	no binding (tested: about 60 ng/mL)	no binding (tested: about 60 ng/mL)	binds	binds
SKA0127 (antibody, V domains shown, Recombinant rabbit monoclonal from B-cell cloning, expressed in FreeStyle 293-F cells; the first screen used B-cell culture supernatant; also called Anti-SG115 Antibody; rabbit Anti Fc-Mutation Antibody) VH: QSVEESGGRLVTPGTPLTLTCTVSGIDLSTYAMTWVRQAPGKGLEYIGYINGGGSAYYASWVNGRFTISKTSTTADLKITSPTTEDTATYFCARGPVGSYHRIWGPGTLVTVSS VL: ALVMTQTPSSVSEPVGGTVTINCRASEDIESYLAWYQQKPGQPPKLLIYATSNLETGVPSRFKGSGSGTDYTLTISGVQCADAATYYCQGYYELSSIDNNAFGGGTEVVVKG	45.4 nM	0.000804 s⁻¹	17700 M⁻¹ s⁻¹	no binding (tested: about 60 ng/mL)	no binding (tested: about 60 ng/mL)	no binding (tested: about 60 ng/mL)	binds	binds
